The source of these data is patent US20230116446A1.

In this assay the target is CD122/CD132 complex (UniProt P14784). The assay can be described thus: cell-based or functional assay.
Sequence of CD122/CD132 complex (P14784 27-551 limits assumed, chain 1 of 2): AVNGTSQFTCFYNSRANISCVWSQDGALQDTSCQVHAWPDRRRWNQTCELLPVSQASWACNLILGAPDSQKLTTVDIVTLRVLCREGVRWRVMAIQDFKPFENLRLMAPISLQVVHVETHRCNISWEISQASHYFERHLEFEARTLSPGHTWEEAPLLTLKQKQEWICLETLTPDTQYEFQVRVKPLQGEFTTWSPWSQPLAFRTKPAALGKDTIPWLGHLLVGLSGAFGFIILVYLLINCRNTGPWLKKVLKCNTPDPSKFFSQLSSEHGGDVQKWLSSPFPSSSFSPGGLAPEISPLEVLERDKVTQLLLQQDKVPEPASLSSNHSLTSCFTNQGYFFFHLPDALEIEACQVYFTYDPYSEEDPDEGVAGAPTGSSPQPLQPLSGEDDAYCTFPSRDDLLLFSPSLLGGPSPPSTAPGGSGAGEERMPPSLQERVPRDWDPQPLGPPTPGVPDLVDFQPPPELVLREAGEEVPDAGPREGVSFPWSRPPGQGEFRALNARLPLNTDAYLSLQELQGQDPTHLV
Sequence of CD122/CD132 complex (P31785 23-369 limits assumed, chain 2 of 2, further chain): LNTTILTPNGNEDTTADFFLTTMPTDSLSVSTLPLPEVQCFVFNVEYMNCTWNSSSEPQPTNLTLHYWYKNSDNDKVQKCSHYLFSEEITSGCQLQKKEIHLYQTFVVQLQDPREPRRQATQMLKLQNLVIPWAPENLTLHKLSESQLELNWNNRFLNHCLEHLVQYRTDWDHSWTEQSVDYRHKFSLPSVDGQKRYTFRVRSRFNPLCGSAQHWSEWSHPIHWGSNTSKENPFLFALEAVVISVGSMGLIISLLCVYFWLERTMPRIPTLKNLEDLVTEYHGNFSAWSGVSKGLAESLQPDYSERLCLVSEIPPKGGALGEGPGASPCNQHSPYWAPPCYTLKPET

Turning to “Fc-IL15×Fc-IL15Rα sushi domain fusion protein (Fc fusion)”, the EC50, IL2 reporter assay (HEK 293 reporter cells, SEAP, absorbance at 650 nM) was 0.066 nM.
In the case of “Recombinant IL-15 (PeproTech 200-15) (from UniProt P40933 49-162) (ligand)” it was 0.021 nM.
